Laboratory results as given in publication doi:10.1101/318345v1.

B1: ICD (Pseudomonas aeruginosa PAO1) (protein)
chain: MGYQKIQVPATGDKITVNADMSLSVPKNPIIPFIEGDGIGVDISPVMIKVVDAAVEKAYKGERKIAWMEVYAGEKATQVYDQDTWLPQETLDAVRDYVVSIKGPLTTPVGGGIRSLNVALRQQLDLYVCQRPVRWFEGVPSPVKKPGDVDMVIFRENSEDIYAGVEWKAGSPEAEKVIKFLTEEMGVKKIRFTENCGIGIKPVSQEGTKRLVRKALQYAVDNDRSSVTLVHKGNIMKFTEGAFKDWGYEVARDEFGAELLDGGPWMQFKNPKTGKNVVVKDVIADAMLQQILLRPAEYDVIATLNLNGDYLSDALAAEVGGIGIAPGANLSDSVAMFEATHGTAPKYAGQDKVNPGSLILSAEMMLRHMGWTEAADLIIKGTNGAIAAKTVTYDFERLMDGATLLSCSEFGDAMIAKM
B2: IDH (Pseudomonas aeruginosa PAO1) (protein)
chain: MSIRSKITYTFTDEAPALATYSLLPIVKAFAASAGIDVETSDISLAGRILANFADRLEADQRIEDDLARLAVLATSPDANIIKLPNISASVPQLKGAIAELQGLGYKVPDFPEDPQTDEEKEVRARYAKILGSAVNPVLREGNSDRRAPAAVKAYARKHPHSMGKWSMASRSHADYMRGGDFFSSEQSITMAKAGDVRIEFVGKDGKVEVKKQLSLQEGEVLDSMFMSCGKLRDFFEKTLQDCKETGVMWSLHVKATMMKISHPIVFGHAVSVYYKDVFDKWGQLFEELGVNPNNGISSVYDKIKSLPASQQEEILHDIHEVYSHRPEMAMVDSVKGITNLHIPSDVIVDASMPAMIRNSGQMWGKDGKQKDTKAVMPESTYARIYQEMINFCKTNGAFDPTTMGSVPNVGLMAQKAEEYGSHDKTFEMTADGTMRVVLADGSVLMQHKVETGDIWRACQTKDAPIRDWVKLAVTRARQSDTPAIFWLDPERAHDRELRKKVELYLKDHDLTGLDISIMGYNEAIRVSMERLIRGKDTISVTGNVLRDYLTDLFPIMELGTSAKMLSIVPLMAGGGMYETGAGGSAPKHVQQLVEENYLRWDSLGEFLALAVSLEETGIKTGNAKAKLLGKALDEATGKLLDNNKSPSRKVGDIDNRGSHFYLAMYWAQALAAQNEDAELKAHFAPLAKALTEQEATIVAELNAVQGKPAEIGGYYRSNPELTSKVMRPSATFNAAIDSLA

Legend:
[1] = substrate: NC(=O)c1ccc[n+]([C@@H]2O[C@H](COP(=O)(O)OP(=O)(O)OC[C@H]3O[C@@H](n4cnc5c(N)ncnc54)[C@H](OP(=O)(O)O)[C@@H]3O)[C@@H](O)[C@H]2O)c1; assay: purified protein; format: biochemical, Pseudomonas aeruginosa; details: 200 μM isocitrate, 5 mM MgCl2, pH 7.5, 37 °C
[2] = substrate: O=C(O)C[C@H](C(=O)O)[C@@H](O)C(=O)O; assay: purified protein; format: biochemical, Pseudomonas aeruginosa; details: 200 μM NADP+, 5 mM MgCl2, pH 7.5, 37 °C

| Protein | Km [1] [µM] | kcat [1] [s⁻¹] | Km [2] [µM] | kcat [2] [s⁻¹] |
| --- | --- | --- | --- | --- |
| B1 | 32.3 | 684.9 | 25.6 | 608.8 |
| B2 |  |  | 17.7 | 183.7 |
